B1: TPR t1 (parent)
chain: GACCAAUCUGCCCUCAGAGCUCGAGAACAUCUUCGGAUGCAGAGGAGGCAGGCUUCGGUGGCGCGAUAGCGCCAACGUCCUCAACCUCCAAUGCAUCCCACCACAUGAUGAUGCCUGAAGAGCCUUGGUUUUUUG

Variants of: B1
Assay: polymerase ribozyme fitness, log enrichment relative to wild type (log ratio); higher = more active; in vitro selection for triplet polymerase activity
Outline: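 Fitness compares each genotype's enrichment to that of the wild type on a logarithmic scale, averaging replicates with inverse-variance weights. The logarithm is base 2. Enrichment came from Illumina sequencing of input and output libraries after one triplicate round of in vitro selection, which included frozen incubation at −7 °C, of PCR-built, transcribed mutant libraries of each subunit of a heterodimeric triplet polymerase ribozyme. Only genotypes with ≥10 input reads and ≥1 read per output were kept.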

In order of rising “polymerase ribozyme fitness (log ratio)” value:
1. C73A U109C C114G C115A G122U  -7.04
2. C73G C85U G117C U133A  -6.98
3. C72U A103U U125G  -6.8
4. C72G U81C C104G C115U U133A  -6.64
5. A74C C101G U109A  -6.47
6. C73A A90G G107A G117U  -6.33
7. C73U C99A C115A U125G  -6.08
8. C72U U109G G113A  -5.96
9. A74G C86U U109A U126G  -5.87
10. C72G U106G G110U A121U U126A G127A  -5.78
11. C73G C104G A121G  -5.73
12. C72G U87C C99U C115G  -5.69
13. C72U C102G U133A  -5.27
14. C73A G107A  -5.21
15. C72U A103U  -5.16
16. C73U A83U G110A G128U  -4.9
17. C72U C73A U81A C85U G122A  -4.88
18. C73U A84G G117C  -4.85
19. C72U U109G  -4.62
20. C72U G110A G113A  -4.61
21. A74C C102G U112C  -4.5
22. A74C A95U G113U U125A  -4.37
23. C73U A103U  -4.35
24. A74C C80A C101G C123A  -4.26
25. C73U U109A  -4.25
26. A74C C104A C114A  -4.14
27. C73U A75U U87A U92A  -4.13
28. A74C C82A G113U C124A G128C U131G  -4.12
29. C72G U92A A118U U131C  -3.98
30. C72G U78G U116A  -3.97
31. C73G A105C  -3.81
32. C72U C80A U87C  -3.67
33. C73A C86U U87A G117A U132A  -3.67
34. C72U G113C A118C  -3.51
35. C73A A95G C104A G110U  -3.5
36. C72U U81C U116A  -3.5
37. C72G U92C C94A  -3.47
38. C72U U81A A91U A118U  -3.42
39. C72U C101G C115U  -3.38
40. C72U U81G  -3.35
41. C73G A91C G127A  -3.34
42. A74C G113U U133A  -3.26
43. C73A A74U C85U C94U C115U  -3.24
44. C72U C85A A105U  -3.17
45. C73G G93U  -3.13
46. C73G C114U  -3.1
47. A74G A100U G128U  -3.08
48. C73G G113C C123U G135A  -3.03
49. C73G C89A C104U A119U  -3.03
50. C73U U96A U116G U130A  -3
51. C73A C94A C102A  -2.96
52. C73G U112A G117U  -2.94
53. C73A A111U  -2.93
54. C72U U96G U106A G113A  -2.89
55. C73U U92G  -2.88
56. C73A C99U  -2.77
57. C72U G77U A100C A118U U129C  -2.77
58. C73G A91G  -2.69
59. A74G A91G G93C G120C  -2.64
60. C72U G113A U126A  -2.61
61. C72U U116G  -2.57
62. C73U A84C U92G U112A  -2.54
63. A74C U126G  -2.5
64. C72U C85U G93U  -2.45
65. C73A U92A  -2.45
66. A74G C79A C82A U112A  -2.42
67. C73A G117C  -2.37
68. C72U C115G  -2.33
69. C72U G117U  -2.27
70. C73G C85G G120A  -2.18
71. C72U C102A G120U  -2.07
72. C72U G93U C115U  -2.06
73. C73U U125C  -2.06
74. C73U C89G A100U  -2.03
75. C73G C82A  -1.99
76. C72G U106G  -1.97
77. A74G A75U U106G  -1.96
78. C73G C80U  -1.77
79. A74C C102U  -1.76
80. C72U C76A C98U  -1.75
81. C73G G127U  -1.75
82. C72U C94U G127U  -1.75
83. C73G A95C C124U G128U U129C  -1.71
84. C73G G77U U125G U133G  -1.69
85. C73U G77C G93A C124U U126G  -1.68
86. C72U U87G  -1.61
87. C73U A83G  -1.56
88. A74C A75U G110A  -1.52
89. C73G A100C  -1.47
90. C73G A83G  -1.44
91. C72U A83G C85U  -1.39
92. C72U G135U  -1.38
93. C73A U87C A105U  -1.35
94. C72U C101G G120C  -1.35
95. C73U A100C  -1.34
96. C72U A100C  -1.3
97. C73G C101A  -1.3
98. C72U G117A  -1.29
99. C73U G93C G113A C124G  -1.29
100. C73A C101G  -1.26
101. C73U A95C U130A  -1.26
102. C72U A74U  -1.23
103. C72U C76U G122A  -1.21
104. C73G U125A  -1.21
105. C72U U96C  -1.2
106. C72U U78C U81A A83G  -1.17
107. C73U A95C  -1.16
108. C73G G93A  -1.13
109. C72U A111C A121U G128A  -1.12
110. C73A U87G U129A  -1.12
111. C73U C88U U125G  -1.1
112. C73G A75U A83U  -1.08
113. C72U G77C  -1.07
114. C73A G93A  -1.04
115. C72U C76A  -0.968
116. C73A C82G G117U U130C  -0.953
117. C72U A100U  -0.925
118. C72U C88U U131C U133A  -0.924
119. C73U A84G  -0.874
120. C72G U106C  -0.865
121. C72U G93C  -0.856
122. C73U C94U  -0.847
123. C72U C82U  -0.823
124. C72U C82A  -0.812
125. C73A C94U U130A  -0.716
126. C73U U130A U131A  -0.703
127. C73G  -0.606
128. A74C C94U  -0.6
129. C72U C94U  -0.599
130. C73A U92C  -0.541
131. C72U U78C  -0.528
132. C72U C115U  -0.526
133. C72U C76G  -0.525
134. C73G U78A  -0.494
135. C73A A119U U132C  -0.485
136. C72U A84U C85U C104U  -0.48
137. C72U C102A C123G  -0.477
138. C73G C104U  -0.454
139. C72U U116C  -0.368
140. C73A U131G  -0.242
141. C73U G93A  -0.23
142. C72U U81C G93C A119U G120C  -0.213
143. C73A C85A G117A A119G U133C G135C  -0.124
144. C73G A118U  -0.0973
145. C73A U130C  -0.0885
146. A74C C82A  -0.0256
147. C73G G120C U130A  -0.0194
148. C73A  0.0792
149. C73U  0.0933
150. C73A C101U  0.2
151. C73U G77A G120A  0.241
152. C73G C124U  0.25
153. C72U U112A G120C  0.504
154. C72U A119G  0.547
155. C72U A111C  0.581
156. C72U U112G  0.605
157. C72U C82A A84C A111C  0.731
158. C73A U116A C124A  0.809
159. C72U C88U C124A  0.938
160. A74G A119G  0.969
161. C73U C123U  0.98
162. A74C C124U  1.08
163. C73G C123G  1.2
164. C73A G120C  1.81
165. C73U C124A  2.11
166. C73U C123G  2.14
167. C73U A121G  2.17
